In CN1934266A (LILLY CO ELI, dated 2007):
Changes are numbered by the printed parent chain.

T1: BMP-5 (R&D Systems 615-BM) (UniProt P22003 317-454, limits assumed)
T1 sequence (looked up): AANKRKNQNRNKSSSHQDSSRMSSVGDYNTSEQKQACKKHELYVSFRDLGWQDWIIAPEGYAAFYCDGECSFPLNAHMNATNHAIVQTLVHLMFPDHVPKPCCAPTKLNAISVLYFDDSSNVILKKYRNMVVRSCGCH

T2: BMP-7 (R&D Systems 354-BP) (UniProt P18075 293-431)
T2 sequence (looked up): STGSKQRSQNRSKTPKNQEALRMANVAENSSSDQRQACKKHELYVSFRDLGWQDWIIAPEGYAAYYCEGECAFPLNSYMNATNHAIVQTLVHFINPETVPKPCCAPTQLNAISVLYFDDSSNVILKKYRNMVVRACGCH

T3: TGF-b2 (Peprotech 100-35) (UniProt P61812 303-414)
T3 construct: also called TGF-β2
T3 sequence (looked up): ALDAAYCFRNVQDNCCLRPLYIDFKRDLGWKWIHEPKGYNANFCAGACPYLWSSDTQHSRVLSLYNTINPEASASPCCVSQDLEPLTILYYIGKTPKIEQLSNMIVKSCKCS

T4: 激活蛋白B (R&D Systems 659-AB) (UniProt P09529 293-407)
T4 construct: also called activin B
T4 sequence (looked up): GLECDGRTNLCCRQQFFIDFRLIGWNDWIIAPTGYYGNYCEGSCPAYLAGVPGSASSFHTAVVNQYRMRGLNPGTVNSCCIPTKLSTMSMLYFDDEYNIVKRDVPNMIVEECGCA

T5: 重组人GDF-11(Peprotech公司，目录号120-11) (human, UniProt O95390 299-407)
T5 sequence (looked up): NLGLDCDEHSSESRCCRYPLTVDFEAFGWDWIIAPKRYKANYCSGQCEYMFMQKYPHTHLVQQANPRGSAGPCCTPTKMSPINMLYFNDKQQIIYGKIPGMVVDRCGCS

T6: BMP-6 (R&D Systems 507-BP) (UniProt P22004 382-513, limits assumed)
T6 sequence (looked up): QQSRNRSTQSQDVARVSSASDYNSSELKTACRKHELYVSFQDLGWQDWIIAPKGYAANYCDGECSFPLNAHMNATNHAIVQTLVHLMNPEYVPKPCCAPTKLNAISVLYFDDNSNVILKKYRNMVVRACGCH

T7: 激活蛋白A (R&D Systems 338-AC) (UniProt P08476 311-426)
T7 construct: also called activin A
T7 sequence (looked up): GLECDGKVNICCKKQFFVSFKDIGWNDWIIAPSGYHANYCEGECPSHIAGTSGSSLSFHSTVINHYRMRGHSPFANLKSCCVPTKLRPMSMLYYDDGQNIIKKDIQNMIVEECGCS

B1: 抗肌肉生长抑素Fab 3 (Fab, V domains shown)
VH: QVTLKESGPGILQSSQTLSLTCSLSGFSLRTSGMSVSWIRQSSGKGLEWLAHIYWDDDKRYNPSLRNRLTISKDTLRNQVFLKITSVGTADTATYYCARRAITTVIGGGTMDYWGQGTSVTVSS
VL: QIVLTQSPAIMSASPGEKVTMTCSASSSISYMHWYQQKPGTSPKRWIYDTSKLASGVPARFSGSGSGTSYSLTISSMEAEDAATYYCQQWYSNPLTFGAGTKLELKR
B2: 抗肌肉生长抑素Fab 5 (Fab, V domains shown)
VH: B1 VH with L24F, R30S, N67S, L76S, G88D, A101G, I106L
VL: B1 VL with I2V, P15L, I29V, S30H, P39S, Y91S
B3: 抗肌肉生长抑素Fab 7 (Fab, V domains shown)
VH: QVTLKSGPGILQSSQTLTLTCSLSGFSLTTSGMIVSWIRQSSGRGLEWLAHIYWDDDKRYNPSLRNRLTISKDTLRNQVFLWISSVGTADTATYYCARRAITTVIGGGTMDYWGQGTSVTVSS
VL: B1 VL

Target: T1, BMP-5 (R&D Systems 615-BM)
Experiment: ELISA, growth factor coated at 10 μg/ml, antibody at 10 μg/ml, mean of duplicates

Binder | 平均吸光度 (OD 490 nm)
B1 | 0.034
B2 | 0.033
B3 | 0.0345

Target: T8, TGF-b1 (Peprotech 100-21R) (UniProt P01137 279-390)
T8 construct: also called TGF-β1
T8 sequence (P01137 279-390 limits assumed): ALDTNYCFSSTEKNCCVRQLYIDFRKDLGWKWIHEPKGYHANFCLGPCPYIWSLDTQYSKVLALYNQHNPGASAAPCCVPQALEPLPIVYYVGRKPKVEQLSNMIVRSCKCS
Experiment: as above

Binder | 平均吸光度 (OD 490 nm)
B1 | 0.034
B2 | 0.0325
B3 | 0.032

Target: T2, BMP-7 (R&D Systems 354-BP)
Experiment: as above

Binder | 平均吸光度 (OD 490 nm)
B1 | 0.033
B2 | 0.032
B3 | 0.031

Target: T9, TGF-a (R&D Systems 239-A) (UniProt P01135 40-89)
T9 construct: also called TGF-α
T9 sequence (P01135 40-89 limits assumed): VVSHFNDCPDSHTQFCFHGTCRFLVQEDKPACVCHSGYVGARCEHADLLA
Experiment: as above

Binder | 平均吸光度 (OD 490 nm)
B1 | 0.033
B2 | 0.033
B3 | 0.0315

Target: T3, TGF-b2 (Peprotech 100-35)
Experiment: as above

Binder | 平均吸光度 (OD 490 nm)
B1 | 0.034
B2 | 0.034
B3 | 0.0345

Target: T4, 激活蛋白B (R&D Systems 659-AB)
Experiment: as above

Binder | 平均吸光度 (OD 490 nm)
B1 | 0.032
B2 | 0.033
B3 | 0.031

Target: T5, 重组人GDF-11(Peprotech公司，目录号120-11)
Experiment: as above

Binder | 平均吸光度 (OD 490 nm)
B1 | 0.0705
B2 | 0.034
B3 | 0.04

Target: T6, BMP-6 (R&D Systems 507-BP)
Experiment: as above

Binder | 平均吸光度 (OD 490 nm)
B1 | 0.0335
B2 | 0.0325
B3 | 0.035

Target: T7, 激活蛋白A (R&D Systems 338-AC)
Experiment: as above

Binder | 平均吸光度 (OD 490 nm)
B1 | 0.033
B2 | 0.033
B3 | 0.0325

Target: BMP-2 (R&D Systems 355-BEC/CF) (UniProt P12643 283-396)
Sequence (P12643 283-396 limits assumed): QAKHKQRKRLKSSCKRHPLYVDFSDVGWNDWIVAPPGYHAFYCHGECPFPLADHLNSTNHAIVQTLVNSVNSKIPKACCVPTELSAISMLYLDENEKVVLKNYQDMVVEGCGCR
Experiment: as above

Binder | 平均吸光度 (OD 490 nm)
B1 | 0.0345
B2 | 0.032
B3 | 0.0335

Target: IGF-1 (R&D Systems 291-G1) (UniProt P05019 49-118)
Sequence (P05019 49-118 limits assumed): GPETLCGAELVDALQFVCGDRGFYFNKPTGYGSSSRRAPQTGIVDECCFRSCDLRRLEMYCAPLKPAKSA
Experiment: as above

Binder | 平均吸光度 (OD 490 nm)
B1 | 0.034
B2 | 0.035
B3 | 0.034
